The data set is described as follows: soluble on expression in E. coli; label from the status in PepcDB or PDB records.
With “MGSSHHHHHHSSGLVPRGSHMQAATVVINRRALRHNLQRLRELAPASKMVAVVKANAYGHGLLETARTLPDADAFGVARLEEALRLRAGGITKPVLLLEGFFDARDLPTISAQHFHTAVHNEEQLAALEEASLDEPVTVWMKLDTGMHRLGVRPEQAEAFYHRLTQCKNVRQPVNIVSHFARADEPKCGATEKQLAIFNTFCEGKPGQRSIAASGGILLWPQSHFDWVRPGIILYGVSPLKDRSTGADFGCQPVMSLTSSLIAVREHKAGEPVGYGGTWVSERDTRLGVVAMGYGDGYPRAAPSGTPVLVNGREVPIVGRVAMDMICVDLGPQAQDKAGDPVILWGEGLPVERIAEMTKVSAYELITRLTSRVAMKYVD”, the “soluble on expression in E. coli” value is recorded as “soluble”.

In the case of “MNPYQAHRIKKLKYQLENAESYEEWKSTALQLDEETGLQEWKYDNCSAYFDAELISYRLNLLRKYRLQQRVMDSVYLLQEGLTHDIANIGHPMLFAATYVGTKQIIEDYIEEVSLSLAFIAASQCQTLTVAEKLKFFKNCQKTYGLEHHHHHH”, the “soluble on expression in E. coli” value is “not soluble”.

Consider “MSEKKAVIGVVTISDRASKGIYEDISGKAIIDYLKDVIITPFEVEYRVIPDERDLIEKTLIELADEKGCSLILTTGGTGPAPRDVTPEATEAVCEKMLPGFGELMRQVSLKQVPTAILSRQTAGIRGSCLIVNLPGKPQSIKVCLDAVMPAIPYCIDLIGGAYIDTDPNKVKAFRPKK”, for which the “soluble on expression in E. coli” value is “soluble”.

For the sequence “MGSDKIHHHHHHMQSGYYSSTGGIVTQFHRLDMISNNLANANTTGFKRDDVVIGDFLRLYEQQKEPLPLEDQTREAAKFLNRAMDRVPSIVEEYTDRSIGGITPSENRFDFALQSENAYFMIETPEGIRYTRDGSFTLNSEGRLVTKEGFAVLPREFVQSRQYIDIPDGVVIEADRNGNLYSRTLNNDELGDIIPLGNIAIASFENPKYLEKTGKNLYEYPQERMGERNLATNSGALVQGYLEKSNVNAVWEMTGLIETNRLVDMYSKVMKTHMDDLNTEAITKLAVKA”, the “soluble on expression in E. coli” value was “not soluble”.

Consider “MTRFAEKVAIITGSSNGIGRATAVLFAREGAKVTITGRHAERLEETRQQILAAGVSEQNVNSVVADVTTDAGQDEILSTTLGKFGKLDILVNNAGAAIPDSQSKTGTAQSIESYDATLNLNLRSVIALTKKAVPHLSSTKGEIVNISSIASGLHATPDFPYYSIAKAAIDQYTRNTAIDLIQHGIRVNSISPGLVATGFGSAMGMPEETSKKFYSTMATMKECVPAGVMGQPQDIAEVIAFLADRKTSSYIIGHQLVVDGGSSLIMGLHCQDFAKLLH”, for which the “soluble on expression in E. coli” value was “soluble”.

Regarding “MSLNITGIQSDWKVEKIEFAKLTGERARSAGANGRIGVHGKSCTVDIARITIDGQTGYGSSIHMTPEWAEDVIGRRLLDLFDDRGRLREAYRLQLEYPVLDWLGQRQGKPVYDLVSGAHLETGASLVVPCYDTSLYFDDLHLADERAAVALMQEEAMQGYAKGQRHFKIKVGRGGRHMPLWEGTKRDIAIVRGISEVAGPAGKIMIDANNAYNLNLTKEVLAALSDVNLYWLEEAFHEDEALYEDLKEWLGQRGQNVLIADGEGLASPHLIEWATRGRVDVLQYDIIWPGFTHWMELGEKLDAHGLRSAPHCYGNAYGIYASGHLSAAVRNFEFVEYDDITIEGMDVSGYRIENGEIHVPATPGFGIVFDDELVTYLINRSGWSEGHHHHHH”, the “soluble on expression in E. coli” value is listed as “soluble”.

Consider “MLIRPNKVQKVGNLFMDTVHEEEIRLLNQLYDTLMKKDVEKADQLMDELLVDLEDHFTTEEELMREFEFFAYPMHKAEHDTMRKRFKEVYDKWKKEKNPEEVVRFLKEEFVPWLKSHVARWDSTTAQQLGD”, for which the “soluble on expression in E. coli” value was “not soluble”.

Consider “MSLKKRIFVTGGAEGIGRAIVEAFCKDGHQVAFCDINAVSGQQTARDTGAIFHPVDVSDKEALESCMQQILDEWKDIDIVINNVGISKFSSITETSVEDFDKILSVNLRPVFITSRLLAIHRKAQSDSNPYGRIINICSTRYLMSEPGSEGYAASKGGIYSLTHALALSLSEWNITVNSIAPGWIQTQNYDQLRPEDHSQHPSRRVGKPEDIARMCLFLCRDENDFINGENITIDGGMTKKMIYTEGHHHHHH”, for which the “soluble on expression in E. coli” value is “soluble”.

Regarding “MGSSHHHHHHSSGLVPRGSDYMFKLLLIGNSSVGKTSFLFRYADDSFTPAFVSTVGIDFKVKTVYRHDKRIKLQIWDTAGQERYRTITTAYYRGAMGFLLMYDIANQESFAAVQDWATQIKTYSWDNAQVILVGNKCDLEDERVVPAEDGRRLADDLGFEFFEASAKENINVKQVFERLVDVICEKMNE”, the “soluble on expression in E. coli” value was “soluble”.

Consider “MEYKKILIRLLIAFAVLFSADFTYQSVEQTHQSHAAVNYYSKNQCTWWAFKRRAQVGKPVSNRWGNAKNWYYNARKSKYATGRTPRKFAVMQSTAGYYGHVAVVEQVYKNGSIKVSEYNFYRPLKYNTRVLSKKAARNFNYIYLEHHHHHH”, for which the “soluble on expression in E. coli” value is recorded as “not soluble”.

For the sequence “MGSDKIHHHHHHMSLDLSTPLQLIGRSVEFQRVVEVLAQDGDLLITGVPGSGRRTLVRWGVTEVRAIALDIDCIRATDGERFLQLLTEAINQNWQAEKIQSWLDKNAKEFFTFHPETKLKLLRSLSQKQIWQAFELLLELPQIMAVDLNKRLVLILQSFPHIRSWDRNGLWEISFRRKIKEHTHVSYVLIATIAETGNYSDENNYPLETIQLPPLNRDVLAVWAREILHGSKLTFDSRSKALQLFLDAVQGHIGDAMAIIRRLQTLCVPDSLVTENDVQQAIEGLLKDLSMTYESLLMLLPANQVHLLECLALDPTEKPQSKDYIQKHGLSRGGSLQGALTGLHHKGLIYGAEQGYLLAMPLLALWLRQRLS”, the “soluble on expression in E. coli” value is “not soluble”.

As for “MRIVTAAVMASTLAVSSLSHAAEVGSGDNWHPGEELTQRSTQSHMFDGISLTEHQRQQMRDLMQQARHEQPPVNVSELETMHRLVTAENFDENAVRAQAEKMANEQIARQVEMAKVRNQMYRLLTPEQQAVLNEKHQQRMEQLRDVTQWQKSSSLKLLSSSNSRSQLEHHHHHH”, the “soluble on expression in E. coli” value is “soluble”.

For the sequence “MRTITFNELRKIKDSLPSGSMHRIADELGLHVDTVRNFFGGHNFKEGKSVGIHLEPGPDGGLVMLDDTTVLDRALKILDEINMSMQKEQATEPMQI”, the “soluble on expression in E. coli” value is “not soluble”.

As to “MSLAHIRTRETYGTRRLQTELAENGIIVGRDRLARLRKELRLRCKQKRKFRATTNPNHNLPVAPNLLNQTFAPTAPNQVWVADLTYVATQEGWLYLAGIKDVYTCEIVGYAMGERMTKELTGKALFMALRSQRPPAGLIHHSDRGSQYCAYDYRVIQEQSGLKTSMSRKGNCYDNAPMESFWGTLKNESLSHYRFNNRDEAISVIREYIEIFYNRQRRHSRLGNISPAAFRENIIRWLLKKRTNGSVRYCQYTSKVAMIYIEQLELIHKSGDVLYPVKITRKSSGKTAFHLVPFGLNKTHDLLEVEDASEAIRLVIDERHSIRCSTLTATITNKKGKRIKRTGIYSIKGVNIKEYNVREGHHHHHH”, the “soluble on expression in E. coli” value is given as “not soluble”.

As for “MGHHHHHHSHMKDSEKHIEVEVRKFLALKQTPDFHTVIGDTVTGLLERCKAEPSFYPRNCLMQLIQTHVLSYSLCPDLMEIALKKKDVQLLQLCLQQFPDIPESVTCACLKIFLSIGDDSLQETDVNMESVFDYSINSVHDEKMEEQTEILQNGFNPEEDKCNNCDQELNKKPQDETKESTSCPVVQKRAALLNAILHSAYSETFLLPHLKDIPAQHITLFLKYLYFLYLKCSENATMTLPGIHPPTLNQIMDWICLLLDANFTVVVMMPEAKRLLINLYKLVKSQISVYSELNKIEVSFRELQKLNQEKNNRGLYSIEVLELF”, the “soluble on expression in E. coli” value is “not soluble”.

Turning to “GSSGSSGMPMTLGYWDIRGLAHAIRLFLEYTDSSYEEKRYTMGDAPDYDQSQWLNEKFKLGLDFPNLPYLIDGSHKITQSNAILRYLGRKHNLCGETEEERIRVDILENQLMDNRMVLARLCYNADFEKLKPGYLEQLPGMMRLYSEFLGKRPWFAGDKITFVDFIAYDVLERNQVFEAKCLDAFPNLKDFIARFEGLKKISDYMKTSRFLPRPMFTKMATWGSNSGPSSG”, the “soluble on expression in E. coli” value is listed as “soluble”.

As to “MSLELFRSKTCALCKGRKLMCGRPRCPILEKFRVAKSVESKINKKEIFGASPPSVFVGEFGYPNVRIGPMVPPVEGDTSFMDDPSRWENVTILEIMEYRSMLVMGETNAHVQVKKNLNFLTHIQELAMANKPVDSEILLKKTPKLDLITGGFTPPVGPRETMLKFKLAENPKIPKKTDYIVNDELKANEGMISLYDSGFDEYYIIKLLSTGLLGVNKKLVPTKWSITAAQDLLGKYVKKSILEYSQINEYEVYFKNFLGNRYAVLLIPDIYAYEMLEVWLKGSLFSGESYNVLSDFEDTTGMKGYADEITGAFYACRLSILEYLKKRKKQAKILVFREITPEYYAPVGVWQIRTGVKLAMENRVGRFNNLKSALESIKKHLEVPIDDYKTKSKILKSNDRQITLDKFFEGHHHHHH”, the “soluble on expression in E. coli” value is recorded as “not soluble”.

Take “LRTGIDNVLRAKTGGLIVLGYNENMKGIVDGGFYLDCPFSPASLYELAKMDGAIILNEDGTKILYANTQLNPDNAISSNETGIRHRTAERVAKQTGNLVISISQRRNVITLYHGHL”: the “soluble on expression in E. coli” value is “soluble”.

As for “MFTGFGAASFSAPAKAAAQTNTLSENTNQSAAELVKNLYNTAYKGEMPQQAQGLTINKSTKGDVHAAFGEPERPVGGDNRFDLYHWNMGQPGYGFSYHKDMTISEIRYFGTGVERQLNLGGVTPEVLQKQLGPVNRVLTVPFTDEIDYVYDTGRYELHFVIGTDQTADHVNLKAKLEHHHHHH”, the “soluble on expression in E. coli” value was “soluble”.

Turning to “MGSDKIHHHHHHMKEISVVLVGIGGYGNKYVEYILREGREKGVRISGVVDPYPQNSRFYDELRSLNVPMYNTLEEFYSHHTADLAIISSPIHYHCEQTCTAVRNGSHVLCEKPAAATVKEVKKMIECREKYGKIVAIGYQWSYNPAVLKLKEDILAGKFGKPVLFKTLVLWPRDTAYYRRNSWAGKLKVNNRWVLDSVAGNATAHFLHNMLFLLGEKMEESAYPESMVAELYRANDIESFDTCALKMTVRKIPVLFFATHAVKERKGPVFEYRFEKARVICNYPEYPESEENLLVVYEDGRKEIYGPTDHGSMRKLWVVVDAARGRKEFICTLESAMAHTIAINGAHVSMKEIQDFPTELKRVEGEPPMIWVEGLKEAMERAYEEEKIFSELNLPWAKRGEEVKLENFEGLEGEITC”, the “soluble on expression in E. coli” value is “not soluble”.

On to “MTDQVFGKVSKVVCVGAGYVGGPTCAMIAHKCPHITVTVVDMNTAKIAEWNSDKLPIYEPGLDEIVFAARGRNLFFSSDIPKAIAEADLIFISVNTPTKMYGRGKGMAPDLKYVESVSRTIAQYAGGPKIVVEKSTVPVKAAESIGCILREAQKNNENLKFQVLSNPEFLAEGTAMKDLANPDRVLIGGESSPEGLQAVAELVRIYENWVPRNRIITTNTWSSELSKLVANAFLAQRISSINSISAVCEATGAEISEVAHAVGYDTRIGSKFLQASVGFGGSCFQKDVLSLVYLCESLNLPQVADYWQGVININNWQRRRFADKIIAELFNTVTDKKIAIFGFAFKKNTGDTRESSAIHVIKHLMEEHAKLSVYDPKVQKSQMLNDLASVTSAQDVERLITVESDPYAAARGAHAIVVLTEWDEFVELNYSQIHNDMQHPAAIFDGRLILDQKALREIGFRTFAIGTSPDQAYNLFGTAGY”, for which the “soluble on expression in E. coli” value was “soluble”.

For the sequence “MLLSGERIDQLYADDIQIIQSKEVFSFSIDAVLLANFPQLPKKGKIVDLCAGNGAVGLFVSRKTAAKIDQIELQPRLADMGQRSILLNKLEKQVTMYERDLKQATEVIKKDSVDLVLCNPPYFKERPTSQKNPNPHLAIARHEIHTSLQEVVTVSADLLKTNGRLAMVHRPDRFLDILHAMENANIAPKKARFVYPKPGKEANVLLIEGIKQGKKDGFRVLPPLFTYNEKNEYEAEMKAMLYGE”, the “soluble on expression in E. coli” value is recorded as “not soluble”.

(Values after the DeepSol protein solubility set.)
